In article PMC4113996, “Prediction and characterization of enzymatic activities guided by sequence similarity and genome neighborhood networks” (eLife, 2014):

Tests used:
Experiment in all cases: purified protein
[1] = substrate: O=C(O)C1=NCCC1; format: biochemical, Bacillus cereus; conditions: 0.16 mM NADPH, 50 mM Tris-HCl pH 7.6, 25°C
[2] = substrate: O=C(O)C1=NCCC1; format: biochemical, Agrobacterium fabrum; conditions: 0.16 mM NADPH, 50 mM Tris-HCl pH 7.6, 25°C
[3] = substrate: O=C(O)C1=NCCC1; format: biochemical, Pseudomonas aeruginosa; conditions: 0.16 mM NADPH, 50 mM Tris-HCl pH 7.6, 25°C
[4] = substrate: O=C(O)[C@@H]1C[C@@H](O)CN1; conditions: 4HypE reaction (start from t4Hyp as in Figure 1), 50 mM Na-phosphate pH 8.0, 1 mM DTT, 25°C

B1: BC_0906 (Q81HB0) (Bacillus cereus ATCC 14579) (protein)
chain: MLVISANEQRNLVNMNEVIEYAALALKEFSAERTITPIRGSLPFANEQNTALIMPSVAEGLEALGVKIVTVVPQNKQIGKKTINGIVMLSDFQAGEPLALLEGSYLTMIRTGALSGVATKYLARHNAKTLCIIGTGEQAKGIAEAIFAVRDIEKVILYNRTEEKAYAFAQYIQEKFGKPAYVYKDPNEAVREADIIVTTTNATTPVFSEILQKGVHVNAVGSFRPSMQELPSHAIAKANKVVVESKEAALDETGDLQVPIKEGLFKANAIHAELGQIISGEKAGRENDEEITIFKSVGLAVVDIIVAKYLYERALEQGVGNKIEF
Work on B1 yielded a Km [1] of 470 ± 100 µM and a kcat [1] of 15 ± 1 s⁻¹.

B2: Atu4676 (Q7CVK1) (Agrobacterium fabrum str. C58) (protein)
chain: MSDTTTLTIEALFQRVESIFLRAGLNAVQSGALARVITAGERDACKSHGIYRIEGALRTVKAAKVKPDAIPEVAEDDGTAIVKVNAMGGFANPAFELGLPALAERAKRLGLAALVINDCTHFSALWPEVEGLTSNGLAGLVMCPSYSTVAPTGGTKPLLGTNPFAFGWPRKDTSPYVFDFATSVAARGEIELHRRARKSLPEGWAVDADGNPTTDPEAALAGAMLPFGGHKGSAIGTMIELLAGIMIGDLTSPEVLDYLGTTTLAPFHGELIVAFSPEAFAKGRPGDPFQRAEVLFEAIIGQGARLPSGRRFAARAKSESEGITLTAAEMAGLDRLLEKGLDAVS
B2 gave a Km [2] of 330 ± 40 µM and a kcat [2] of 32 ± 1 s⁻¹.

B3: PA1252 (Q9I492) (Pseudomonas aeruginosa PAO1) (protein)
chain: MIRMTLDEVRELAVRILRRHAFSEAHVQAVADTLVAGERDECASHGIWRLLGCIATLKAGKVSADAEPELHDIAPGLLRVDAHGGFSQCAFRLGLPHLLEKARSQGIAAMAVNRCVHFSALWVEVEALTEAGLVALATTPSHAWVAPAGGRKPIFGTNPIAFGWPRPDGPPFVFDFATSAVARGEIQLHERAGKPIPLGWGVDEQGEPTTDASAALRGAMLTFGGHKGSALAAMVELLAGPLIGDLTSAESLAYDEGSRSSPYGGELLIAIDPRRMLGASAEEHLARAETLFEGIVEQGARLPSQRRFEARERSARDGVTIPEALHRELLALLE
For B3, the Km [3] was 410 ± 60 µM and the kcat [3] was 1.6 ± 0.05 s⁻¹.

B4: Avi_0518 (B9JQV3) (Allorhizobium ampelinum S4) (protein)
chain: MRWKRMMQLLDVHCEGEIGKVAIGGVPKIPGDTVADQLHWLNTDPKGRELRHFLVLEPRGAPIGSVNLLLPAKDSRADAAFIILQPDQAHASSGSNSICVTTALLESGMIEMQEPETVVMLETAAGLVKAVAQCRDGHCDSVTLTMVPSFVHELDAQIATESWGEIRFDLAYGGVFYALVDVRQLGLTIEPGNARRLVEAGMLLKGEINQRIQVVHPDIPAISGVAYVMFRDEDPDGAVRTCTTMWPGRVDRSPCGTGNSANLATLHARGRVKPGDSFLSRSIIGSQFTVGLQGLTTVAGRSAVIPTITGRGFTYGIHQVALDAFDPLGGGFVLTDVWGAAAETIKI
B4 gave a Km [4] of 5600 ± 500 µM.
